Data: the supplement of paper PMC10724198
± gives the standard deviation of the averaged measurements.

Tested on: Saccharomyces cerevisiae
Assay: protein stability index of tFT-peptide fusion (C-terminal peptide) (PSI (0-1 scale)); higher = more stable (slower turnover)
Details: genetic background: wild type; temperature: 30 C
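Further: PSI is a weighted mean of sequencing reads over stability bins, variants kept only with over 10 reads, mCherry proximal and sfGFP distal, peptide attached via GGGS linker.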

| Sequence | protein stability index |
| --- | --- |
| RSGLARPSPLTR | 0.67445 ± 0.00024 |
| FLVKFYKYPSTR | 0.707 ± 0.12 |
| RTLWGYCPRSPL | 0.718 ± 0.021 |
| RGEERGGTRPAG | 0.6788 ± 0.0037 |
| IIFRLLLSRFFL | 0.543 ± 0.022 |
| QCLFPVAYYLTP | 0.657 ± 0.0097 |
| GLGLHKDGSTGG | 0.6093 ± 0.003 |
| PLPLPSLSAIFL | 0.677 ± 0.016 |
| KREEGKTKKKKQ | 0.666 ± 0.023 |
| LSFFLSSALLHP | 0.7 ± 0.028 |
| QPGPKTTYLEEA | 0.686 ± 0.014 |
| VLANAAGLEGFA | 0.681 ± 0.041 |
| IRIIETPDSFYK | 0.795 ± 0.058 |
| YLGCSLAMAFSL | 0.6278 ± 0.0054 |
| MLRSGDFSSPPN | 0.694 ± 0.042 |
| HPPAFSAKTFPS | 0.683 ± 0.043 |
| PHHLLTAHPPPA | 0.668 ± 0.035 |
| EFRWVASGDLLS | 0.749 ± 0.017 |
| PPPPPPTPPSLS | 0.7449 ± 0.001 |
| LREKFFWTRIRR | 0.724 ± 0.05 |
| LPARFLIDFTRV | 0.688 ± 0.029 |
| EGSLHLHLSLST | 0.66 ± 0.029 |
| PPPHPPPLAIPP | 0.767 ± 0.075 |
| PPRLHAPPPSPP | 0.716 ± 0.016 |
| LVSPLARLGLMI | 0.787 ± 0.05 |
| TGSRISHSPLYP | 0.671 ± 0.02 |

| Sequence | protein stability index |
| --- | --- |
| EVGMDLTTGPIS | 0.619 ± 0.056 |
| YSLQLSTVCCRL | 0.614 ± 0.019 |
| GQAWVEITARDS | 0.748 ± 0.075 |
| GGGGRAALRWYG | 0.651 ± 0.014 |
| PPPRPPHGPLPY | 0.658 ± 0.037 |
| GEARVGGRWWSK | 0.7722 ± 0.0071 |
| QPYHSSPSPRTI | 0.717 ± 0.073 |
| GLSSFIGRRGRR | 0.713 ± 0.013 |
| SSGRHCLPCANV | 0.64 ± 0.017 |
| DPHINARERTPL | 0.814 ± 0.2 |
| ACIWRCFDAAMG | 0.632 ± 0.019 |
| RYPSRGQFGPSP | 0.691 ± 0.019 |
| RVCVERFDSLTL | 0.733 ± 0.08 |
| AGQTLARLYTRS | 0.614 ± 0.12 |
| LVGHENIVVRRA | 0.72 ± 0.011 |
| SKKRKKNNAKTK | 0.713 ± 0.01 |
| PPPTPPSRILPA | 0.699 ± 0.016 |
| VRRPSPSGGWLR | 0.73 ± 0.051 |
| YSLTFSIHSSCP | 0.697 ± 0.033 |
| EKGRGGIGSRGK | 0.768 ± 0.064 |
| PPTPPPVPPPWS | 0.669 ± 0.044 |
| GGGGLGRGKGCW | 0.706 ± 0.03 |
| VILFINRIDDGK | 0.616 ± 0.057 |
| FLMDSQGPWICR | 0.726 ± 0.076 |
| FRLPMIRVCWSL | 0.569 ± 0.025 |
| SPLPPPPPVPLP | 0.652 ± 0.082 |

| Sequence | protein stability index |
| --- | --- |
| LPPPRSLPPILS | 0.656 ± 0.017 |
| GEAEGGEEYGEG | 0.636 ± 0.017 |
| VSGLDSLHPSSN | 0.717 ± 0.034 |
| FCGGSWTDGFGW | 0.737 ± 0.028 |
| SGGSKAGGVVRI | 0.63 ± 0.039 |
| VVVRRSEVGGRV | 0.65 ± 0.095 |
| VSVLVAFDTLPG | 0.711 ± 0.034 |
| AKWGGDGCGARM | 0.764 ± 0.082 |
| AVPLFRSVSRTS | 0.667 ± 0.11 |
| GMDGWGWGGSVV | 0.706 ± 0.026 |
| VKASPSDGGIVP | 0.725 ± 0.035 |
| SAPEPTISKLLP | 0.603 ± 0.027 |
| KNSTKHIKNEKN | 0.774 ± 0.044 |
| LTLPPLPPPSLP | 0.707 ± 0.0081 |
| TQSNRKPLECPS | 0.679 ± 0.066 |
| PPARATPHDRCP | 0.724 ± 0.037 |
| RRLSVPFSPSAL | 0.733 ± 0.032 |
| KKENKQEKKNMI | 0.709 ± 0.016 |
| SLRMMKTTNAWT | 0.661 ± 0.0077 |
| QNNTRQQRKTPR | 0.683 ± 0.022 |
| FCIRLFLLPLCP | 0.5869 ± 0.0055 |
| TMQDSNKSQGCA | 0.706 ± 0.019 |
| RWWGDEAHRDGA | 0.81 ± 0.049 |
| LPPSPPTPPQYT | 0.6977 ± 0.003 |
| NKIKKKRTEPQP | 0.66522 ± 7.3e-05 |
| KKIKKRNIKKKT | 0.67 ± 0.032 |

| Sequence | protein stability index |
| --- | --- |
| MSWSVSDIADDS | 0.657 ± 0.0075 |
| RPEKGLESGQRV | 0.69 ± 0.064 |
| HCLLPLTTRRGR | 0.7 ± 0.026 |
| PPTPPPPRSTPS | 0.766 ± 0.035 |
| AGGGAAGPAGWV | 0.6728 ± 0.0036 |
| LKLLIPPSFSLI | 0.611 ± 0.027 |
| FLFKLPPPPRCH | 0.678 ± 0.1 |
| PFFSPLPPSPPP | 0.767 ± 0.11 |
| SRGQSSNEVSPL | 0.637 ± 0.017 |
| PPLFTLSFSHFV | 0.679 ± 0.021 |
| HSTESHHQLDNQ | 0.649 ± 0.026 |
| TDPLGDDSSESE | 0.672 ± 0.048 |
| ILWFYSDSPWLS | 0.763 ± 0.11 |
| PPRSLPPPTSPL | 0.731 ± 0.011 |
| VASWNSDKTKND | 0.752 ± 0.12 |
| VMVYLRSPLLDR | 0.748 ± 0.059 |
| VSNTSAWLLWIS | 0.629 ± 0.032 |
| SACRSVPGYVAG | 0.672 ± 0.046 |
| INHNKNKTIIAL | 0.655 ± 0.0075 |
| SFPYPCFPPPPF | 0.78 ± 0.056 |
| CGTYPTFCGLGV | 0.68 ± 0.068 |
| IYPRLGPHSLVC | 0.589 ± 0.016 |
| AERKDKNRKKKR | 0.705 ± 0.023 |
